Source: patent publication US20150285818A1, “Switchable Reporter Enzymes for Homogenous Antibody Detection” (TECHNISCHE UNIVERSITEIT EINDHOVEN, priority 2012, published 2015)
pKd: −log10 of the molar value.

Legend:
…-GGG-C(fluorescein) [1] = experiment: fluorescence polarization, 2 nM labelled peptide titrated with antibody
…-GGG-C(fluorescein) [2] = experiment: fluorescence polarization, 2 nM fluorescein-labelled peptide titrated with antibody
[3] = molecular target: WEKIRLR-GGG-C(fluorescein) (HIV1); experiment: fluorescence polarization, 10 nM labelled peptide titrated with antibody
[4] = molecular target: …-GGG-C(fluorescein) (HIV1); experiment: as above
[5] = molecular target: WEKIRLR-GGG-C(fluorescein) (HIV1); experiment: fluorescence polarization, 10 nM fluorescein-labelled peptide titrated with antibody
[6] = molecular target: …-GGG-C(fluorescein) (HIV1); experiment: as above

Substance: HA monoclonal antibody (clone 2-2.2.14, Thermo Scientific)
- pKd (…-GGG-C(fluorescein) [1]): 9.24
- EC50 (read off the curve) (…-GGG-C(fluorescein) [2]): 1 to 2 nM

Substance: anti-HIV-1-p17 antibody (clone 32/1.24.89, Zeptometrix)
- pKd [3]: 5.48
- pKd [4]: 7.62
- EC50 (read off the curve) [5]: 3000 nM
- EC50 (read off the curve) [6]: 30 nM
